{"source": "patent US20150313972A1", "molecular_target": "M6P receptors on the surface of human fibroblasts (human), P11717", "sequence (P11717 41-2491)": "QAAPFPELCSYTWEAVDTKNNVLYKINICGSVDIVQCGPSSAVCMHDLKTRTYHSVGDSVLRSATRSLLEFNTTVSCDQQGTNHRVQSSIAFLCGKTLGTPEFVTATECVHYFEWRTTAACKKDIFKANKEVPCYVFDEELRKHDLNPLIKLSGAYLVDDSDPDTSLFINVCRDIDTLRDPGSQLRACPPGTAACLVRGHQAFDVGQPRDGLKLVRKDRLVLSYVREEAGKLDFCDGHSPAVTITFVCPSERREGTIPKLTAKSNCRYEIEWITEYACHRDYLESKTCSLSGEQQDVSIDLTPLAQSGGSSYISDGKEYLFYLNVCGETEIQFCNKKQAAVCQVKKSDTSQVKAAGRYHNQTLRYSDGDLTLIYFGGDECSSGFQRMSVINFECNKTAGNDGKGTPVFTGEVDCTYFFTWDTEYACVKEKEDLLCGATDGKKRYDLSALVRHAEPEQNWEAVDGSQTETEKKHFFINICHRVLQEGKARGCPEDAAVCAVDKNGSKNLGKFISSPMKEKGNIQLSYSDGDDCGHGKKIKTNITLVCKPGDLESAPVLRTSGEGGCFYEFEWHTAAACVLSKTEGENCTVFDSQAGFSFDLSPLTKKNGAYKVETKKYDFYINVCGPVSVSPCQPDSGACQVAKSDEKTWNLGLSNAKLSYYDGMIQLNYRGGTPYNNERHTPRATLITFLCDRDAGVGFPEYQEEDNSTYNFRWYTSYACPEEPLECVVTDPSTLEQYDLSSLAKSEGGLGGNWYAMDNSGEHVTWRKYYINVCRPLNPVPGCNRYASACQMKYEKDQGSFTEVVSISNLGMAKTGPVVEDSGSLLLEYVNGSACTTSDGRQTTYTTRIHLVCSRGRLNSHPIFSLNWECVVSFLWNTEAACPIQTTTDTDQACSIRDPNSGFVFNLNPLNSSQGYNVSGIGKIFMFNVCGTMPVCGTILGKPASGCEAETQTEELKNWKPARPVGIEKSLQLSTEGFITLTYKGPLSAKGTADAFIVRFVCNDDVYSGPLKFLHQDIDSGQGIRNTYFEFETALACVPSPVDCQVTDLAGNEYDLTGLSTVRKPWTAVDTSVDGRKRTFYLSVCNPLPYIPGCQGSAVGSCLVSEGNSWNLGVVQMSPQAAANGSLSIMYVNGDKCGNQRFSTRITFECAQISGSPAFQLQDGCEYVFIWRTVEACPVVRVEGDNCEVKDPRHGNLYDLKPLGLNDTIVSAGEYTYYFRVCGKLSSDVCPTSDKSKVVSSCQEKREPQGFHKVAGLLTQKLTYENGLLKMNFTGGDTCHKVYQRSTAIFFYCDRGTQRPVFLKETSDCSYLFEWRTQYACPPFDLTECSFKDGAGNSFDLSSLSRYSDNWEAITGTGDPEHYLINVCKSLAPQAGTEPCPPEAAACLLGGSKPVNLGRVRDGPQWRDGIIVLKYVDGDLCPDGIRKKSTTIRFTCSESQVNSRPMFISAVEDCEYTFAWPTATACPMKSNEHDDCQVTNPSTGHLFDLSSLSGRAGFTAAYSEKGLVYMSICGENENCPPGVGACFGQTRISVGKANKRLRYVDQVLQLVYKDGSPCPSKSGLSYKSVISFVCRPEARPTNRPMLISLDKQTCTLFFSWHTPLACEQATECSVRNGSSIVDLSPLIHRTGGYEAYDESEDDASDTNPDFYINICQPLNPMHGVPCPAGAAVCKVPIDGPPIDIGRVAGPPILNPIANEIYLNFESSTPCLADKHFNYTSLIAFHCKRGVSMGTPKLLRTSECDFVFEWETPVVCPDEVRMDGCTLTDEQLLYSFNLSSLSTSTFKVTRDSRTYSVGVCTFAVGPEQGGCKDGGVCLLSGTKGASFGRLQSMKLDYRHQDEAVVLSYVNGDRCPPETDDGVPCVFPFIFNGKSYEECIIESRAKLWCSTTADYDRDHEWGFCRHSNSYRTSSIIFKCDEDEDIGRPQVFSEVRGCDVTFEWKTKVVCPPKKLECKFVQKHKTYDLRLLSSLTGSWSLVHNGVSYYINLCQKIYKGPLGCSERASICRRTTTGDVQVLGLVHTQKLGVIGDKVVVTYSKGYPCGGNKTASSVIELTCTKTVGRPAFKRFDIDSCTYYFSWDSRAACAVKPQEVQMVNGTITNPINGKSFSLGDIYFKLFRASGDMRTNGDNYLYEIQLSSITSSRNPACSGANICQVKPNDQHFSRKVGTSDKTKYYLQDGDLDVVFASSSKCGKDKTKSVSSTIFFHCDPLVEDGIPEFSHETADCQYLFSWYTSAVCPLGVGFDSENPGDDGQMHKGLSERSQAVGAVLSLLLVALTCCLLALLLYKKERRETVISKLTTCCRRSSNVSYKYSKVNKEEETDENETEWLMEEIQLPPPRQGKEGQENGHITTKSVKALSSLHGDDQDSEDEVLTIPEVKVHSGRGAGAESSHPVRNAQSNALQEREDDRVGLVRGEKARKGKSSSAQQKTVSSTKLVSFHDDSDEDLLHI", "assay": "cell-based or functional assay", "note": "Where “and” joins values, the source holds several entries; their conditions need not be identical. Identical values can stand only once."}
{"binder": "purified recombinant human iduronate-2-sulfatase (I2S) produced in serum-free medium, P22304 26-550 (enzyme, here or on the partner: cysteine corresponding to Cys59 of mature human I2S (SEQ ID NO:1) converted to C-alpha-formylglycine (87-95% in Table 4, 94% in Table 13); glycans bearing sialic acid and mannose-6-phosphate) SETQANSTTDALNVLLIIVDDLRPSLGCYGDKLVRSPNIDQLASHSLLFQNAFAQQAVCAPSRVSFLTGRRPDTTRLYDFNSYWRVHAGNFSTIPQYFKENGYVTMSVGKVFHPGISSNHTDDSPYSWSFPPYHPSSEKYENTKTCRGPDGELHANLLCPVDVLDVPEGTLPDKQSTEQAIQLLEKMKTSASPFFLAVGYHKPHIPFRYPKEFQKLYPLENITLAPDPEVPDGLPPVAYNPWMDIRQREDVQALNISVPYGPIPVDFQRKIRQSYFASVSYLDTQVGRLLSALDDLQLANSTIIAFTSDHGWALGEHGEWAKYSNFDVATHVPLIFYVPGRTASLPEAGEKLFPYLDPFDSASQLMEPGRQSMDLVELVSLFPTLAGLAGLQVPPRCPVPSFHVELCREGKNLLKHFRFRDLEEDPYLPGNPRELIAYSQYPRPSDIPQWNSDKPSLKDIKIMGYSIRTIDYRYTVWVGFNPDEFLANFSDIHAGELYFVDSDPLQDHNMYNDSQGGDLFQLLMP", "values": [{"measurement": "Cell Uptake", "result": 98}, {"measurement": "Cellular Uptake (Bioassay)", "result": "85% and 95% and 97%"}, {"measurement": "Internalization", "result": 83, "unit": "%"}]}
